In the supplement of paper PMC11246515:
± gives the standard deviation of the averaged measurements.

Test: total protein half-life in vivo (active degradation + dilution); higher = more stable protein
[1] = E. coli NCM3722 delta-clpP delta-lon delta-hslV, growth: N-lim chemostat, doubling time 6 h
[2] = E. coli NCM3722 delta-clpP, growth: N-lim chemostat, doubling time 6 h
[3] = E. coli NCM3722 delta-hslV, growth: N-lim chemostat, doubling time 6 h
[4] = E. coli NCM3722 delta-lon, growth: N-lim chemostat, doubling time 6 h
[5] = E. coli NCM3722 delta-smpB, growth: N-lim chemostat, doubling time 6 h
[6] = wild type E. coli NCM3722, growth: C-lim chemostat, doubling time 3 h
[7] = wild type E. coli NCM3722, growth: C-lim chemostat, doubling time 6 h
[8] = wild type E. coli NCM3722, growth: C-lim chemostat, doubling time 12 h
[9] = wild type E. coli NCM3722, growth: N-lim chemostat, doubling time 6 h
[10] = wild type E. coli NCM3722, growth: N-lim chemostat, doubling time 12 h
[11] = wild type E. coli NCM3722, growth: P-lim chemostat, doubling time 6 h
[12] = wild type E. coli NCM3722, growth: P-lim chemostat, doubling time 12 h

Sequence	total protein half-life in vivo [1] [h]	total protein half-life in vivo [2] [h]	total protein half-life in vivo [3] [h]	total protein half-life in vivo [4] [h]	total protein half-life in vivo [5] [h]	total protein half-life in vivo [6] [h]	total protein half-life in vivo [7] [h]	total protein half-life in vivo [8] [h]	total protein half-life in vivo [9] [h]	total protein half-life in vivo [10] [h]	total protein half-life in vivo [11] [h]	total protein half-life in vivo [12] [h]
MAQIDFRKKINWHRRYRSPQGVKTEHEILRIFESDRGRIINSPAIRRLQQKTQVFPLERNAAVRTRLTHSMEVQQVGRYIAKEILSRLKELKLLEAYGLDELTGPFESIVEMSCLMHDIGNPPFGHFGEAAINDWFRQRLHPEDAESQPLTDDRCSVAALRLRDGEEPLNELRRKIRQDLCHFEGNAQGIRLVHTLMRMNLTWAQVGGILKYTRPAWWRGETPETHHYLMKKPGYYLSEEAYIARLRKELNLALYSRFPLTWIMEAADDISYCVADLEDAVEKRIFTVEQLYHHLHEAWGQHEKGSLFSLVVENAWEKSRSNSLSRSTEDQFFMYLRVNTLNKLVPYAAQRFIDNLPAIFAGTFNHALLEDASECSDLLKLYKNVAVKHVFSHPDVERLELQGYRVISGLLEIYRPLLSLSLSDFTELVEKERVKRFPIESRLFHKLSTRHRLAYVEAVSKLPSDSPEFPLWEYYYRCRLLQDYISGMTDLYAWDEYRRLMAVEQ	5.23 ± 0.2	5.726 ± 0.025	6.52 ± 1.8	5.63 ± 0.46	5.16 ± 0.065	3.281 ± 0.016	6.17 ± 0.39	11.6 ± 0.46	6.14 ± 1.6	11 ± 0.68	5.52 ± 0.37	12.2 ± 0.22
MFTRVANFCRKVLSREESEAEQAVARPQVTVIPREQHAISRKDISENALKVMYRLNKAGYEAWLVGGGVRDLLLGKKPKDFDVTTNATPEQVRKLFRNCRLVGRRFRLAHVMFGPEIIEVATFRGHHEGNVSDRTTSQRGQNGMLLRDNIFGSIEEDAQRRDFTINSLYYSVADFTVRDYVGGMKDLKDGVIRLIGNPETRYREDPVRMLRAVRFAAKLGMRISPETAEPIPRLATLLNDIPPARLFEESLKLLQAGYGYETYKLLCEYHLFQPLFPTITRYFTENGDSPMERIIEQVLKNTDTRIHNDMRVNPAFLFAAMFWYPLLETAQKIAQESGLTYHDAFALAMNDVLDEACRSLAIPKRLTTLTRDIWQLQLRMSRRQGKRAWKLLEHPKFRAAYDLLALRAEVERNAELQRLVKWWGEFQVSAPPDQKGMLNELDEEPSPRRRTRRPRKRAPRREGTA [P0ABF1]	6.05 ± 0.76	5.89 ± 0.71	3.67 ± 0.17	3.728 ± 0.025	3.45 ± 0.18	2.324 ± 0.019	4.37 ± 0.12	6.58 ± 0.41	3.84 ± 0.079	6.19 ± 0.3	3.92 ± 0.57	7.24 ± 0.26
MSRRNTDAITIHSILDWIEDNLESPLSLEKVSERSGYSKWHLQRMFKKETGHSLGQYIRSRKMTEIAQKLKESNEPILYLAERYGFESQQTLTRTFKNYFDVPPHKYRMTNMQGESRFLHPLNHYNS [P0ACH5]	3.42 ± 0.064	–	–	> 8	–	–	–	–	–	–	–	–
MSAFTPASEVLLRHSDDFEQSRILFAGDLQDDLPARLDTAASRAHTQQFHHWQVLSRQMGDNARFSLVATADDVADCDTLIYYWPKNKPEAQFQLMNLLSLLPVGTDIFVVGENRSGVRSAEQMLADYAPLNKVDSARRCGLYFGRLEKQPVFDAEKFWGEYSVDGLTVKTLPGVFSRDGLDVGSQLLLSTLTPHTKGKVLDVGCGAGVLSVAFARHSPKIRLTLCDVSAPAVEASRATLAANGVEGEVFASNVFSEVKGRFDMIISNPPFHDGMQTSLDAAQTLIRGAVRHLNSGGELRIVANAFLPYPDVLDETFGFHEVIAQTGRFKVYRAIMTRQAKKG	6.65 ± 1.3	5.678 ± 0.047	6.2 ± 0.67	6.21 ± 0.59	5.56 ± 0.52	2.93 ± 0.21	6.41 ± 0.39	11.6 ± 0.39	5.68 ± 0.71	11.1 ± 1.8	6 ± 0.36	12.9 ± 0.31
MLERLSWKRLVLELLLCCLPAFILGAFFGYLPWFLLASVTGLLIWHFWNLLRLSWWLWVDRSMTPPPGRGSWEPLLYGLHQMQLRNKKRRRELGNLIKRFRSGAESLPDAVVLTTEEGGIFWCNGLAQQILGLRWPEDNGQNILNLLRYPEFTQYLKTRDFSRPLNLVLNTGRHLEIRVMPYTHKQLLMVARDVTQMHQLEGARRNFFANVSHELRTPLTVLQGYLEMMNEQPLEGAVREKALHTMREQTQRMEGLVKQLLTLSKIEAAPTHLLNEKVDVPMMLRVVEREAQTLSQKKQTFTFEIDNGLKVSGNEDQLRSAISNLVYNAVNHTPEGTHITVRWQRVPHGAEFSVEDNGPGIAPEHIPRLTERFYRVDKARSRQTGGSGLGLAIVKHAVNHHESRLNIESTVGKGTRFSFVIPERLIAKNSD	6.39 ± 0.09	6.38 ± 0.28	5.95 ± 1.3	–	6.31 ± 0.26	3.118 ± 0.019	5.82 ± 0.35	12.3 ± 1.7	6.4435 ± 0.0015	12.7 ± 2	6.19 ± 0.21	12.2 ± 0.24
MRFCLILITALLLAGCSHHKAPPPNARLSDSITVIAGLNDQLQSWHGTPYRYGGMTRRGVDCSGFVVVTMRDRFDLQLPRETKQQASIGTQIDKDELLPGDLVFFKTGSGQNGLHVGIYDTNNQFIHASTSKGVMRSSLDNVYWQKNFWQARRI	–	1.22	–	0.828	1.61 ± 0.18	0.468 ± 0.23	1.4	> 16	–	4.32	2.28	4.21 ± 0.75
MQQLASFLSGTWQSGRGRSRLIHHAISGEALWEVTSEGLDMAAARQFAIEKGAPALRAMTFIERAAMLKAVAKHLLSEKERFYALSAQTGATRADSWVDIEGGIGTLFTYASLGSRELPDDTLWPEDELIPLSKEGGFAARHLLTSKSGVAVHINAFNFPCWGMLEKLAPTWLGGMPAIIKPATATAQLTQAMVKSIVDSGLVPEGAISLICGSAGDLLDHLDSQDVVTFTGSAATGQMLRVQPNIVAKSIPFTMEADSLNCCVLGEDVTPDQPEFALFIREVVREMTTKAGQKCTAIRRIIVPQALVNAVSDALVARLQKVVVGDPAQEGVKMGALVNAEQRADVQEKVNILLAAGCEIRLGGQADLSAAGAFFPPTLLYCPQPDETPAVHATEAFGPVATLMPAQNQRHALQLACAGGGSLAGTLVTADPQIARQFIADAARTHGRIQILNEESAKESTGHGSPLPQLVHGGPGRAGGGEELGGLRAVKHYMQRTAVQGSPTMLAAISKQWVRGAKVEEDRIHPFRKYFEELQPGDSLLTPRRTMTEADIVNFACLSGDHFYAHMDKIAAAESIFGERVVHGYFVLSAAAGLFVDAGVGPVIANYGLESLRFIEPVKPGDTIQVRLTCKRKTLKKQRSAEEKPTGVVEWAVEVFNQHQTPVALYSILTLVARQHGDFVD	4.86	–	–	–	–	–	–	–	–	6.08	–	7.41
MKSVLKVSLAALTLAFAVSSHAADKKLVVATDTAFVPFEFKQGDKYVGFDVDLWAAIAKELKLDYELKPMDFSGIIPALQTKNVDLALAGITITDERKKAIDFSDGYYKSGLLVMVKANNNDVKSVKDLDGKVVAVKSGTGSVDYAKANIKTKDLRQFPNIDNAYMELGTNRADAVLHDTPNILYFIKTAGNGQFKAVGDSLEAQQYGIAFPKGSDELRDKVNGALKTLRENGTYNEIYKKWFGTEPK [P0AEQ3]	4.537 ± 0.04	6.03 ± 2.1	6.84 ± 0.17	6.824 ± 0.065	6.44 ± 0.68	3.38 ± 0.19	6.48 ± 0.26	11.8 ± 1.3	6.43 ± 0.32	13.1 ± 0.91	6.13 ± 0.34	14.08 ± 0.14
